# Results reported in the DeepSol protein solubility set.
# Assay: soluble on expression in E. coli; label from the status in PepcDB or PDB records
row,Sequence,soluble on expression in E. coli
1,MGSDKIHHHHHHMDDYGYRALPDALGTTYGSYLSAKSASGRYTVYVGANDGMLHAFDAGMTADGSMDASGGLERFAYIPATALGHMGNLLLPSDPTNRTTEYEHRYYVDGPVVVGDANYAGSWKTVVVGAAGAGGRSIFALDVTNPSNFSTSSKLWEISDLDSSLSTAIRNNIGHVLGKPVIVPVKNAAGAVTWKAIFGNGYNSRNGKAVLFVVDIKTGAPAVTMIEATETGSTIAGSNGLGNIVVVDRWGGASQTDGVRDGYADTVYGADQKGAIWKFDLRSSAASVTVPFFTTRTSVESGQTYRQPITGGLVATAGDAGGVMLFFGTGSFSFESDPKDEAIQSLYGVNDTVRGAPLTTATRANLRGSTVVQDGDRTLSRAAAPANSQGWYVDLPAKERMVGSPSIASGIVFIPTYTPAVVSSGCKPDGANWLFGLDTRTGDGALMDARKGSPTGASFASRTAATPLTTSGNAPVKDVGVSAIPRLSPAESGSAPGGQACWMVVTAAGSGPLYIPYPCGRQSWRQVQ,not soluble
2,MGSDKIHHHHHHMDELVDGERESGRAALGRTLRLLREKSGKTLGQLAGETSYDKSYLYRLETGERLSKRAVMEDLDRYHGSGDLLVRLWRDARKDVIKDKYKAFMELEATARVMWKFQLRVPGLLQTEDYARVVLSGLSRAQTTAGNGEEVEEQVAARVGRQEMLHRQPAPSVRVILDEGALRRRVPKEKVWADQLVHLVDVAELASVTLQVLPFTAGVHDLMNSDLTLMWQRVGEPVAYVEGNGFGELVDDPDKVLSYRLSYDLVRDAALTPAESTTFIKRLLEECRS,not soluble
3,MGSDKIHHHHHHMDIRQLKTFIAIAEHGTFAKAADAVGLTPSAVSQQIQALESEVRGELFDRATRPIMLNGHGLQMLEAARTLVRDADNIIDAISGRAVSGTFTIGSVRSSALSLLPLSIVALKADYPDLRIKLQVANTDELLKDVMSGRLDCAMVAEYSGIPSALRWQPFINEPLLVIGPNGTPKMSGFDMLSKLPYVRFNSKFRLAQIIETELAKTRIVPNLIAEIDTIASVVSCVIHGLGVSVVPWIALRDIAAPIVAVQFGEPQILRPIGLLERRSGTRAQIIDRLHQNLARLSDPYGIPR,not soluble
4,MGSDKIHHHHHHMDITALQQQLELIQQNDYTQLRHIDINELTLHMLQYIGTTDSYVRYQLIYKCFVHFIHHEFLMDDQLKLLLQTCLSDEYLYCDIYSPHSDGVFTRSYTVSLIALILQFANSHYFCTEEDIEEIKNKLITYTNLETDFRGYIENKGWAHCLAHVSDAFTEIVHNSYTTFEWYEELIHCLLNKIFIPSDLFHNNEDERIVTPLLAMLYHDFPQDELISIIQKKIKRLPQIRKRLSLNEYCILCANIKTFLRTLFFRTKDDHNLAFTARKTERMLKELPNYY,not soluble
5,MGSDKIHHHHHHMDKLSFNIFPNVNFIDLCMYQFGHEQCEPGHSFGPATRNHYLFHYVLSGTGTLMADNAKGITQTYNIKSGQGFLIFPGQINTYIADDKLPWEYIWIEFDGLRVKEALTTTELTKNNPVYHTHSKDIREKLVEEMLYITRHPSESPYHLIGHMYLFLDYLMQSAKSSKLVPGGKMSDFYIKEAMNYIEQNFQNDISIEDIAGVCGINRSYLGKIFKNSVGHSPQEFLMNYRMIKATELLKLTSLSIADVGSAVGYENQLHFSRAFKNIYGVAPREWRNEHK,not soluble
6,MGSDKIHHHHHHMDLRSDALQILKDTSRTFYIPISILPSGLQEAVASAYLCMRAIDEIEDHPTLDNPTKAKLLRGISLTLQAGVDGFPVDAFAAGFSGYENTLAEVTMRIREWSLLAPETIAPRIWDATAAMSDRMAYWAENNWKIYTESDLDRYTFGVAGAVGLLLSDLWTWYDGTQTNRTLAIGFGRGLQAVNILRNHVEDLGRGVSFFPDGWDANNMQEYALRNLALADAYTQALPDGPALNFCQIPLTLAHGTIDAIANGKEKLSRNDVMALLEHLITFNLKAG,not soluble
7,MGSDKIHHHHHHMDLWKLYQPGTPAAIVAWGQLGTAHAKTTYGLLRHSRLFKPVCVVAEHEGKMASDFVKPVRYDVPVVSSVEKAKEMGAEVLIIGVSNPGGYLEEQIATLVKKALSLGMDVISGLHFKISQQTEFLKIAHENGTRIIDIRIPPLELDVLRGGIYRKKIKVVGVFGTDCVVGKRTTAVQLWERALEKGIKAGFLATGQTGILIGADAGYVIDAVPADFVSGVVEKAVLKLEKTGKEIVFVEGQGALRHPAYGQVTLGLLYGSNPDVVFLVHDPSRDHFESFPEIPKKPDFEEERRLIETLSNAKVIGGVSLNGGFETDLPVYDPFNTDDLDEMLERAMVW,soluble
8,MGSDKIHHHHHHMDNAIVTSPSGSSPAEAQAFLDAHPEIEAFDIVLTDANGVGRGKIVRRHELKSIFEGGRHMPISILGLDITGEDVHETGLIWTTGDGDLRAWPIPGTLVPLYGTNPPRGQVLMAMYHLDGQPMSSDPRLALARQVDILAAKGLYPAGAFELEFFLLANERDADGKVQPARAVLDGRVSGKTEVYSVDHLHGMEPLFSDIYAAAKAQGIPAETVISEYAPGQYELTLNYRKDVMRAADDLVMLKRLVRAQARRHGVTACFMAKPIEKYAGSGMHFHVSLQDKAGRNVFAEAGGESWSLPLLQGLGGLIQTMAESMLVFAPHANSWRRFVSQSYAPVAPTWGVNNRSVALRVPAGDAKNRRIEHRPSGVDANPYLIAATVLAGIVKGLDEGLDPGPETTGNGYEAAVTRTTMPADWRAAIEAAKASSFLKGALGEDLHRTFVAIKQSEYLRVARTVSELDYHLYLHEV,not soluble
9,MGSDKIHHHHHHMDNLMLNNKIYLEGTCVSNLEFSHEMYGEGFYTFKISVNRLSDVKDILPVTISERLLTEIDIKEGAELIIEGQLRSYNKFIEGSNRLILTVFARDVQPCIEKSKNPNQIFLDGYICKEPIYRTTPFGREIADILLAVNRPYNKSDYIPTISWGRNSRFCKTLNVGDNIRVWGRLQSRKYQKKVGEDEVVTKTAYEVSISKLEYADEIDEEIDKSVENLAE,not soluble
10,MGSDKIHHHHHHMDNPFARFAGTRTIQANLSLLEENYVPDSFPHRENQINEMVTILSSIMRGSRPSNIIVYGKTGTGKTSTTKYVTKMLVEAASNVSVVYVNCEIYDSPYSILVAIANSAGEEKIPELGWPIDRIYRETVERVEKTGKFFIIILDEMDRLIKKNGGDSLYVLLKLMTDVDSVRVSMIGITNDTTVLENIDARIKSRLNQESIVFPPYNASEIRDIISSRLDKVLGPGVVDDTAINLCAAIGAQEHGDARKAIDLMRIAIEIAIRENRNKITENEIYEARERYEMNVLREAISTLPLHSKIVLLSAVVTQEIEPNSVITGEIYENYRRICDDLGFSPLSPRRISDLLTELADYGLLVMDDRNMGKYGRTRSFSVVHQAETIKKYLLEDENLSMFKSSKMPKQTRFDT,not soluble
11,MGSDKIHHHHHHMDPRLLPLLSCPRHPTVTLTVEQVERVVNGAIVSGRLRCPVCATTYLIKDGILDMIGQHRPTSAAQVVNEVPVAAWAYERTWRPFALSLLSGEQFPLTRELKLITGLAGAERGGLMVDVGCSNGLYARALEHVRRQRGAGGFVVGIDLSMAMLQEAQRRARHEGLSISFIRASAQAMPFADGTVDALVMGGSLNEIGDIPAALSEWRRLLSPQGRGVMMSLVAASTPIGQGIQQLLASGGLQFPSLAELNHYFTAAGLRLRAQWQYGIVVFSVLQ,not soluble
12,MGSDKIHHHHHHMDRLQLLEYWLKALYPDQPCTLSPASADASFRRYFRASLPGKTLIVMDAPPQQEDCRPFLHAASIFSRASVHVPAIVAQDLNQGFLLLSDLGTTTYLQALTAAPENANRLYQDAIDALIKIQCASQKNIFPEYDRILLSRELELFPDWYMTRHLHAPPDDDQKNTLKTVFNLILANNLAQPQVFVHRDYHSRNLMVSTPNPGIIDFQDAVLGPITYDLVSLFKDAYIQWEEAQILDWMIRYWEKARHAGLPVATDFSIFYRDFEWMGVQRHLKVLGIFARLCYRDNKPTYLQDMPAIMQYLRQTCERYSELHPLSRLLDRLEDRQAETGYTF,not soluble
13,MGSDKIHHHHHHMDSYFLGVSLESLKSLPRQTNHLRLGLAMWSHYHWQDSVYGSTTKQAERLARYATIFNTVEGNTSFYATPNAQTMMNWLRATPDDFRFTFKLPQTITHQKQLQHCQQELLQFFQVMSPLAEKTGLWKIQLPAHFGPENLPALAQFLNQVPQGLTYGVEVRHAAFFAKGEAERALNRLLMDKQVNRIIMDSRPLFALPPANEAIIDTHKKKPRVPVHAIATANTPVVRFIGQPDDACSCTTRAARR,not soluble
